Source: US11906524B2, “Urea biosensors and uses thereof” (Duke University, priority 2015, dated 2024)

B1: N211A: csUBP7 186C, 211A mutant (SEQ ID NO: 82), tested as Acrylodan conjugate (conjugate)
chain: MSSSESEKEKSEETIKVGILHSLSGTMSISEVSLKDAELMAIEEINNNGGVLGKKLEPIVEDGASDWPTFAEKAKKLLQKDKVAVIFGAWTSASRKAVLPVVEENNGLLFYPVQYEGLESSPNIFYMGAAPNQQIVPAVKWLFDNGKKRFYLLGSDYVFPRTANKIIKAYLKYLGGVVVGEEYTPCGHTDYSSVINKIKAAKPDVVFNTLAGDSNVAFFKQLKDAGIDANTLPVMSVSIAEEEIKGIGPEYLKGHLVTWNYFQSVDTPENKEFVEKYKKKYGEDRVTDDPIEAAYIGVYLWAKAVEKAGSTDVDKVREAAKGIEFNAPEGPVKIDGDNQHLYKTVRIGEILENGQIRELWKTNKPVKPDPYLKGYEWAQGLSEQGGSHHHHHH
modifications: Acrylodan conjugate; csUBP7_186C.28 (186C, 211A substitution mutant, signal peptide replaced with M and a GGSHHHHHH at C-terminus, and also comprising a C89A substitution)
B2: V113A: csUBP7 186C, 113A mutant (SEQ ID NO: 69), tested as Acrylodan conjugate (conjugate)
chain: MSSSESEKEKSEETIKVGILHSLSGTMSISEVSLKDAELMAIEEINNNGGVLGKKLEPIVEDGASDWPTFAEKAKKLLQKDKVAVIFGAWTSASRKAVLPVVEENNGLLFYPAQYEGLESSPNIFYMGAAPNQQIVPAVKWLFDNGKKRFYLLGSDYVFPRTANKIIKAYLKYLGGVVVGEEYTPCGHTDYSSVINKIKAAKPDVVFNTLNGDSNVAFFKQLKDAGIDANTLPVMSVSIAEEEIKGIGPEYLKGHLVTWNYFQSVDTPENKEFVEKYKKKYGEDRVTDDPIEAAYIGVYLWAKAVEKAGSTDVDKVREAAKGIEFNAPEGPVKIDGDNQHLYKTVRIGEILENGQIRELWKTNKPVKPDPYLKGYEWAQGLSEQGGSHHHHHH
modifications: Acrylodan conjugate; csUBP7_186C.15 (186C, 113A substitution mutant, signal peptide replaced with M and a GGSHHHHHH at C-terminus, and also comprising a C89A substitution)
B3: N211E: csUBP7 186C, 211E mutant (SEQ ID NO: 86), tested as Acrylodan conjugate (conjugate)
chain: MSSSESEKEKSEETIKVGILHSLSGTMSISEVSLKDAELMAIEEINNNGGVLGKKLEPIVEDGASDWPTFAEKAKKLLQKDKVAVIFGAWTSASRKAVLPVVEENNGLLFYPVQYEGLESSPNIFYMGAAPNQQIVPAVKWLFDNGKKRFYLLGSDYVFPRTANKIIKAYLKYLGGVVVGEEYTPCGHTDYSSVINKIKAAKPDVVFNTLEGDSNVAFFKQLKDAGIDANTLPVMSVSIAEEEIKGIGPEYLKGHLVTWNYFQSVDTPENKEFVEKYKKKYGEDRVTDDPIEAAYIGVYLWAKAVEKAGSTDVDKVREAAKGIEFNAPEGPVKIDGDNQHLYKTVRIGEILENGQIRELWKTNKPVKPDPYLKGYEWAQGLSEQGGSHHHHHH
modifications: Acrylodan conjugate; csUBP7_186C.32 (186C, 211E substitution mutant, signal peptide replaced with M and a GGSHHHHHH at C-terminus, and also comprising a C89A substitution)
B4: Q114E: csUBP7 186C, 114E mutant (SEQ ID NO: 76), tested as Acrylodan conjugate (conjugate)
chain: MSSSESEKEKSEETIKVGILHSLSGTMSISEVSLKDAELMAIEEINNNGGVLGKKLEPIVEDGASDWPTFAEKAKKLLQKDKVAVIFGAWTSASRKAVLPVVEENNGLLFYPVEYEGLESSPNIFYMGAAPNQQIVPAVKWLFDNGKKRFYLLGSDYVFPRTANKIIKAYLKYLGGVVVGEEYTPCGHTDYSSVINKIKAAKPDVVFNTLNGDSNVAFFKQLKDAGIDANTLPVMSVSIAEEEIKGIGPEYLKGHLVTWNYFQSVDTPENKEFVEKYKKKYGEDRVTDDPIEAAYIGVYLWAKAVEKAGSTDVDKVREAAKGIEFNAPEGPVKIDGDNQHLYKTVRIGEILENGQIRELWKTNKPVKPDPYLKGYEWAQGLSEQGGSHHHHHH
modifications: Acrylodan conjugate; csUBP7_186C.22 (186C, 114E substitution mutant, signal peptide replaced with M and a GGSHHHHHH at C-terminus, and also comprising a C89A substitution)
B5: S92A: csUBP7 186C, S92A mutant (SEQ ID NO: 65), tested as Acrylodan conjugate (conjugate)
chain: MSSSESEKEKSEETIKVGILHSLSGTMSISEVSLKDAELMAIEEINNNGGVLGKKLEPIVEDGASDWPTFAEKAKKLLQKDKVAVIFGAWTAASRKAVLPVVEENNGLLFYPVQYEGLESSPNIFYMGAAPNQQIVPAVKWLFDNGKKRFYLLGSDYVFPRTANKIIKAYLKYLGGVVVGEEYTPCGHTDYSSVINKIKAAKPDVVFNTLNGDSNVAFFKQLKDAGIDANTLPVMSVSIAEEEIKGIGPEYLKGHLVTWNYFQSVDTPENKEFVEKYKKKYGEDRVTDDPIEAAYIGVYLWAKAVEKAGSTDVDKVREAAKGIEFNAPEGPVKIDGDNQHLYKTVRIGEILENGQIRELWKTNKPVKPDPYLKGYEWAQGLSEQGGSHHHHHH
modifications: Acrylodan conjugate; csUBP7_186C.11 (186C, S92A substitution mutant, signal peptide replaced with M and a GGSHHHHHH at C-terminus, and also comprising a C89A substitution)
B6: V113T: csUBP7 186C, 113T mutant (SEQ ID NO: 70), tested as Acrylodan conjugate (conjugate)
chain: MSSSESEKEKSEETIKVGILHSLSGTMSISEVSLKDAELMAIEEINNNGGVLGKKLEPIVEDGASDWPTFAEKAKKLLQKDKVAVIFGAWTSASRKAVLPVVEENNGLLFYPTQYEGLESSPNIFYMGAAPNQQIVPAVKWLFDNGKKRFYLLGSDYVFPRTANKIIKAYLKYLGGVVVGEEYTPCGHTDYSSVINKIKAAKPDVVFNTLNGDSNVAFFKQLKDAGIDANTLPVMSVSIAEEEIKGIGPEYLKGHLVTWNYFQSVDTPENKEFVEKYKKKYGEDRVTDDPIEAAYIGVYLWAKAVEKAGSTDVDKVREAAKGIEFNAPEGPVKIDGDNQHLYKTVRIGEILENGQIRELWKTNKPVKPDPYLKGYEWAQGLSEQGGSHHHHHH
modifications: Acrylodan conjugate; csUBP7_186C.16 (186C, 113T substitution mutant, signal peptide replaced with M and a GGSHHHHHH at C-terminus, and also comprising a C89A substitution)
B7: V113Q: csUBP7 186C, 113Q mutant (SEQ ID NO: 72), tested as Acrylodan conjugate (conjugate)
chain: MSSSESEKEKSEETIKVGILHSLSGTMSISEVSLKDAELMAIEEINNNGGVLGKKLEPIVEDGASDWPTFAEKAKKLLQKDKVAVIFGAWTSASRKAVLPVVEENNGLLFYPQQYEGLESSPNIFYMGAAPNQQIVPAVKWLFDNGKKRFYLLGSDYVFPRTANKIIKAYLKYLGGVVVGEEYTPCGHTDYSSVINKIKAAKPDVVFNTLNGDSNVAFFKQLKDAGIDANTLPVMSVSIAEEEIKGIGPEYLKGHLVTWNYFQSVDTPENKEFVEKYKKKYGEDRVTDDPIEAAYIGVYLWAKAVEKAGSTDVDKVREAAKGIEFNAPEGPVKIDGDNQHLYKTVRIGEILENGQIRELWKTNKPVKPDPYLKGYEWAQGLSEQGGSHHHHHH
modifications: Acrylodan conjugate; csUBP7_186C.18 (186C, 113Q substitution mutant, signal peptide replaced with M and a GGSHHHHHH at C-terminus, and also comprising a C89A substitution)

Assay: Urea titration of emission intensity spectra (Nanodrop3300) with ratiometric analysis, singly labeled conjugates
Format: binding
From the text: Determination of emission intensity spectra.
Ratiometric analysis of urea binding. […] 2
For a single urea-binding site, the fractional saturation is given by
[formula] where [L] is the ligand (urea) concentration and Kd the dissociation constant, ^trueKd for ytrue.
[formula] where ^appIλ2 and ^satIλ2 are the emission intensities of the monochromatic signal at wavelength λ2 of the ligand-free and ligand-bound protein, respectively.

[1] = mutation in the csUBP7 186C·Acrylodan conjugate

| Molecule | effect of mutation on urea affinity [1] | further results |
| --- | --- | --- |
| Texas Red |  | trueKd (urea) (fluorophore conjugated to csUBP7 186C, Q114A, fit of equation 1 to the monochromatic emission intensities, Nanodrop3300): n/b |
| Oregon Green |  | monochromatic intensity change (fluorophore conjugated to csUBP7 186C variant with Q114A, increase on urea): ~2 fold; Kd (fluorophore conjugated to csUBP7 186C, Q114A, fit of equation 1 to the monochromatic emission intensities, Nanodrop3300, read-out: trueKd (urea)): 300 µM |
| B1 | nearly abolishes binding |  |
| B2 | weakens binding significantly |  |
| B3 | weakens affinity |  |
| B4 | improves binding by an order of magnitude |  |
| B5 | abolishes binding |  |
| B6 | only a small effect |  |
| B7 |  | fold stronger affinity than either V113N or V113H [1]: 10 fold |
